# Data from patent US20240270846A1 (published 2024).
# B1: CE115HA000 H96G one-arm antibody (antibody, human IgG1, kappa, L234A L235A, N297A, name in Kabat numbering)
# heavy: QVQLVESGGGVVQPGRSLRLSCAASGFTFSNAWMHWVRQAPGKGLEWVAQIKAKSNNYATYYAESVKGRFTISRDDSKNSLYLQMNSLKTEDTAVYYCRYVGYGAYYGVDAWGQGTTVTVSSASTKGPSVFPLAPSSKSTSGGTAALGCLVKDYFPEPVTVSWNSGALTSGVHTFPAVLQSSGLYSLSSVVTVPSSSLGTQTYICNVNHKPSNTKVDKKVEPKSCDKTHTCPPCPAPEAAGGPSVFLFPPKPKDTLMISRTPEVTCVVVDVSHEDPEVKFNWYVDGVEVHNAKTKPREEQYASTYRVVSVLTVLHQDWLNGKEYKCKVSNKALPAPIEKTISKAKGQPREPQVYTLPPSRCELTKNQVSLSCAVKGFYPSDIAVEWESNGQPENNYKTTPPVLDSDGSFFLVSKLTVDKSRWQQGNVFSCSVMHEALHNHYTQKSLSLSPDYKDDDDK
# chain: EPKSSDKTHTCPPCPAPELLGGPSVFLFPPKPKDTLMISRTPEVTCVVVDVSHEDPEVKFNWYVDGVEVHNAKTKPREEQYNSTYRVVSVLTVLHQDWLNGKEYKCKVSNKALPAPIEKTISKAKGQPREPQVCTLPPSRDELTKNQVSLWCLVKGFYPSDIAVEWESNGQPENNYKTTPPVLDSDGSFFLYSKLTVDKSRWQQGNVFSCSVMHEALHNRYTQKSLSLSP
# light: DIVMTQSPLSLPVTPGEPASISCRSSQSLVHSNRNTYLHWYQQKPGQAPRLLIYKVSNRFSGVPDRFSGSGSGTDFTLKISRVEAEDVGVYYCGQGTQVPYTFGQGTKLEIKRTVAAPSVFIFPPSDEQLKSGTASVVCLLNNFYPREAKVQWKVDNALQSGNSQESVTEQDSKDSTYSLSSTLTLSKADYEKHKVYACEVTHQGLSSPVTKSFNRGEC
# notes: one-arm antibody (one Fab)
# B2: CE115HA000 H96Q one-arm antibody (antibody, human IgG1, kappa, L234A L235A, N297A, name in Kabat numbering)
# heavy: QVQLVESGGGVVQPGRSLRLSCAASGFTFSNAWMHWVRQAPGKGLEWVAQIKAKSNNYATYYAESVKGRFTISRDDSKNSLYLQMNSLKTEDTAVYYCRYVQYGAYYGVDAWGQGTTVTVSSASTKGPSVFPLAPSSKSTSGGTAALGCLVKDYFPEPVTVSWNSGALTSGVHTFPAVLQSSGLYSLSSVVTVPSSSLGTQTYICNVNHKPSNTKVDKKVEPKSCDKTHTCPPCPAPEAAGGPSVFLFPPKPKDTLMISRTPEVTCVVVDVSHEDPEVKFNWYVDGVEVHNAKTKPREEQYASTYRVVSVLTVLHQDWLNGKEYKCKVSNKALPAPIEKTISKAKGQPREPQVYTLPPSRCELTKNQVSLSCAVKGFYPSDIAVEWESNGQPENNYKTTPPVLDSDGSFFLVSKLTVDKSRWQQGNVFSCSVMHEALHNHYTQKSLSLSPDYKDDDDK
# chain: EPKSSDKTHTCPPCPAPELLGGPSVFLFPPKPKDTLMISRTPEVTCVVVDVSHEDPEVKFNWYVDGVEVHNAKTKPREEQYNSTYRVVSVLTVLHQDWLNGKEYKCKVSNKALPAPIEKTISKAKGQPREPQVCTLPPSRDELTKNQVSLWCLVKGFYPSDIAVEWESNGQPENNYKTTPPVLDSDGSFFLYSKLTVDKSRWQQGNVFSCSVMHEALHNRYTQKSLSLSP
# light: DIVMTQSPLSLPVTPGEPASISCRSSQSLVHSNRNTYLHWYQQKPGQAPRLLIYKVSNRFSGVPDRFSGSGSGTDFTLKISRVEAEDVGVYYCGQGTQVPYTFGQGTKLEIKRTVAAPSVFIFPPSDEQLKSGTASVVCLLNNFYPREAKVQWKVDNALQSGNSQESVTEQDSKDSTYSLSSTLTLSKADYEKHKVYACEVTHQGLSSPVTKSFNRGEC
# notes: one-arm antibody (one Fab)
# B3: CE115HA000 H96K one-arm antibody (antibody, human IgG1, kappa, L234A L235A, N297A, name in Kabat numbering)
# heavy: QVQLVESGGGVVQPGRSLRLSCAASGFTFSNAWMHWVRQAPGKGLEWVAQIKAKSNNYATYYAESVKGRFTISRDDSKNSLYLQMNSLKTEDTAVYYCRYVKYGAYYGVDAWGQGTTVTVSSASTKGPSVFPLAPSSKSTSGGTAALGCLVKDYFPEPVTVSWNSGALTSGVHTFPAVLQSSGLYSLSSVVTVPSSSLGTQTYICNVNHKPSNTKVDKKVEPKSCDKTHTCPPCPAPEAAGGPSVFLFPPKPKDTLMISRTPEVTCVVVDVSHEDPEVKFNWYVDGVEVHNAKTKPREEQYASTYRVVSVLTVLHQDWLNGKEYKCKVSNKALPAPIEKTISKAKGQPREPQVYTLPPSRCELTKNQVSLSCAVKGFYPSDIAVEWESNGQPENNYKTTPPVLDSDGSFFLVSKLTVDKSRWQQGNVFSCSVMHEALHNHYTQKSLSLSPDYKDDDDK
# chain: EPKSSDKTHTCPPCPAPELLGGPSVFLFPPKPKDTLMISRTPEVTCVVVDVSHEDPEVKFNWYVDGVEVHNAKTKPREEQYNSTYRVVSVLTVLHQDWLNGKEYKCKVSNKALPAPIEKTISKAKGQPREPQVCTLPPSRDELTKNQVSLWCLVKGFYPSDIAVEWESNGQPENNYKTTPPVLDSDGSFFLYSKLTVDKSRWQQGNVFSCSVMHEALHNRYTQKSLSLSP
# light: DIVMTQSPLSLPVTPGEPASISCRSSQSLVHSNRNTYLHWYQQKPGQAPRLLIYKVSNRFSGVPDRFSGSGSGTDFTLKISRVEAEDVGVYYCGQGTQVPYTFGQGTKLEIKRTVAAPSVFIFPPSDEQLKSGTASVVCLLNNFYPREAKVQWKVDNALQSGNSQESVTEQDSKDSTYSLSSTLTLSKADYEKHKVYACEVTHQGLSSPVTKSFNRGEC
# notes: one-arm antibody (one Fab)
# B4: CE115HA000 H96R one-arm antibody (antibody, human IgG1, kappa, L234A L235A, N297A, name in Kabat numbering)
# heavy: QVQLVESGGGVVQPGRSLRLSCAASGFTFSNAWMHWVRQAPGKGLEWVAQIKAKSNNYATYYAESVKGRFTISRDDSKNSLYLQMNSLKTEDTAVYYCRYVRYGAYYGVDAWGQGTTVTVSSASTKGPSVFPLAPSSKSTSGGTAALGCLVKDYFPEPVTVSWNSGALTSGVHTFPAVLQSSGLYSLSSVVTVPSSSLGTQTYICNVNHKPSNTKVDKKVEPKSCDKTHTCPPCPAPEAAGGPSVFLFPPKPKDTLMISRTPEVTCVVVDVSHEDPEVKFNWYVDGVEVHNAKTKPREEQYASTYRVVSVLTVLHQDWLNGKEYKCKVSNKALPAPIEKTISKAKGQPREPQVYTLPPSRCELTKNQVSLSCAVKGFYPSDIAVEWESNGQPENNYKTTPPVLDSDGSFFLVSKLTVDKSRWQQGNVFSCSVMHEALHNHYTQKSLSLSPDYKDDDDK
# chain: EPKSSDKTHTCPPCPAPELLGGPSVFLFPPKPKDTLMISRTPEVTCVVVDVSHEDPEVKFNWYVDGVEVHNAKTKPREEQYNSTYRVVSVLTVLHQDWLNGKEYKCKVSNKALPAPIEKTISKAKGQPREPQVCTLPPSRDELTKNQVSLWCLVKGFYPSDIAVEWESNGQPENNYKTTPPVLDSDGSFFLYSKLTVDKSRWQQGNVFSCSVMHEALHNRYTQKSLSLSP
# light: DIVMTQSPLSLPVTPGEPASISCRSSQSLVHSNRNTYLHWYQQKPGQAPRLLIYKVSNRFSGVPDRFSGSGSGTDFTLKISRVEAEDVGVYYCGQGTQVPYTFGQGTKLEIKRTVAAPSVFIFPPSDEQLKSGTASVVCLLNNFYPREAKVQWKVDNALQSGNSQESVTEQDSKDSTYSLSSTLTLSKADYEKHKVYACEVTHQGLSSPVTKSFNRGEC
# notes: one-arm antibody (one Fab)
# B5: CE115HA000 H96L one-arm antibody (antibody, human IgG1, kappa, L234A L235A, N297A, name in Kabat numbering)
# heavy: QVQLVESGGGVVQPGRSLRLSCAASGFTFSNAWMHWVRQAPGKGLEWVAQIKAKSNNYATYYAESVKGRFTISRDDSKNSLYLQMNSLKTEDTAVYYCRYVLYGAYYGVDAWGQGTTVTVSSASTKGPSVFPLAPSSKSTSGGTAALGCLVKDYFPEPVTVSWNSGALTSGVHTFPAVLQSSGLYSLSSVVTVPSSSLGTQTYICNVNHKPSNTKVDKKVEPKSCDKTHTCPPCPAPEAAGGPSVFLFPPKPKDTLMISRTPEVTCVVVDVSHEDPEVKFNWYVDGVEVHNAKTKPREEQYASTYRVVSVLTVLHQDWLNGKEYKCKVSNKALPAPIEKTISKAKGQPREPQVYTLPPSRCELTKNQVSLSCAVKGFYPSDIAVEWESNGQPENNYKTTPPVLDSDGSFFLVSKLTVDKSRWQQGNVFSCSVMHEALHNHYTQKSLSLSPDYKDDDDK
# chain: EPKSSDKTHTCPPCPAPELLGGPSVFLFPPKPKDTLMISRTPEVTCVVVDVSHEDPEVKFNWYVDGVEVHNAKTKPREEQYNSTYRVVSVLTVLHQDWLNGKEYKCKVSNKALPAPIEKTISKAKGQPREPQVCTLPPSRDELTKNQVSLWCLVKGFYPSDIAVEWESNGQPENNYKTTPPVLDSDGSFFLYSKLTVDKSRWQQGNVFSCSVMHEALHNRYTQKSLSLSP
# light: DIVMTQSPLSLPVTPGEPASISCRSSQSLVHSNRNTYLHWYQQKPGQAPRLLIYKVSNRFSGVPDRFSGSGSGTDFTLKISRVEAEDVGVYYCGQGTQVPYTFGQGTKLEIKRTVAAPSVFIFPPSDEQLKSGTASVVCLLNNFYPREAKVQWKVDNALQSGNSQESVTEQDSKDSTYSLSSTLTLSKADYEKHKVYACEVTHQGLSSPVTKSFNRGEC
# notes: one-arm antibody (one Fab)
# B6: CE115HA000 H96P one-arm antibody (antibody, human IgG1, kappa, L234A L235A, N297A, name in Kabat numbering)
# heavy: QVQLVESGGGVVQPGRSLRLSCAASGFTFSNAWMHWVRQAPGKGLEWVAQIKAKSNNYATYYAESVKGRFTISRDDSKNSLYLQMNSLKTEDTAVYYCRYVPYGAYYGVDAWGQGTTVTVSSASTKGPSVFPLAPSSKSTSGGTAALGCLVKDYFPEPVTVSWNSGALTSGVHTFPAVLQSSGLYSLSSVVTVPSSSLGTQTYICNVNHKPSNTKVDKKVEPKSCDKTHTCPPCPAPEAAGGPSVFLFPPKPKDTLMISRTPEVTCVVVDVSHEDPEVKFNWYVDGVEVHNAKTKPREEQYASTYRVVSVLTVLHQDWLNGKEYKCKVSNKALPAPIEKTISKAKGQPREPQVYTLPPSRCELTKNQVSLSCAVKGFYPSDIAVEWESNGQPENNYKTTPPVLDSDGSFFLVSKLTVDKSRWQQGNVFSCSVMHEALHNHYTQKSLSLSPDYKDDDDK
# chain: EPKSSDKTHTCPPCPAPELLGGPSVFLFPPKPKDTLMISRTPEVTCVVVDVSHEDPEVKFNWYVDGVEVHNAKTKPREEQYNSTYRVVSVLTVLHQDWLNGKEYKCKVSNKALPAPIEKTISKAKGQPREPQVCTLPPSRDELTKNQVSLWCLVKGFYPSDIAVEWESNGQPENNYKTTPPVLDSDGSFFLYSKLTVDKSRWQQGNVFSCSVMHEALHNRYTQKSLSLSP
# light: DIVMTQSPLSLPVTPGEPASISCRSSQSLVHSNRNTYLHWYQQKPGQAPRLLIYKVSNRFSGVPDRFSGSGSGTDFTLKISRVEAEDVGVYYCGQGTQVPYTFGQGTKLEIKRTVAAPSVFIFPPSDEQLKSGTASVVCLLNNFYPREAKVQWKVDNALQSGNSQESVTEQDSKDSTYSLSSTLTLSKADYEKHKVYACEVTHQGLSSPVTKSFNRGEC
# notes: one-arm antibody (one Fab)
# Target: T1, CD3 epsilon homodimer protein (UniProt P07766 23-126)
# T1 construct: Immobilized on Sensor chip CM4 by amine coupling; construct not described; also called CD3 (CD3 epsilon)
# Experiment: SPR Biacore T200, CD3 epsilon homodimer on CM4 chip, antibody as analyte;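 also: Amine-coupled CD3 epsilon homodimer, run at 25 °C in HBS-EP+ buffer, ratio is bound amount of each single-residue H chain variant over that of the parent antibody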
# T1 sequence (P07766 23-126): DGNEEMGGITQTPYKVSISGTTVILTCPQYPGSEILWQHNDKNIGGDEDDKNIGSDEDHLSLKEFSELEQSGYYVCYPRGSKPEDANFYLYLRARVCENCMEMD
row,Binder,ratio of amounts bound (Y/X vs CE115HA000)
1,B1,0.43
2,B2,0.42
3,B3,0.35
4,B4,0.46
5,B5,0.14
6,B6,0.12
